Test results from patent US20100062980A1, “THERAPEUTIC USES OF BETA-ANTAGONISTS” (priority 2006, published 2010).

Tested on: Swiss albino male mice
Type: in vivo
Details: mouse, in vivo, 2.5 mg/kg
Description: Swiss albino male mice (˜20 g) were used for the in vivo toxicity study. Male Sprague-Dawley (SD) rats were used for electrocardiogram (ECG) monitoring (3-4 weeks old, ˜80-100 g) and the Langendorff isolated perfused heart experiments (8 weeks old, ˜250 g). Animals were acquired from the university Laboratory Animal Center (LAC) and were acclimatized to the Animal Holding Unit surroundings for at least 3 days prior to the experiments. Animals were kept under standard conditions with food and water available ad lib. All animal experiments were conducted according to the protocol (776/05a) approved by the Institutional Animal Care and Use Committee (IACUC) of the National University of Singapore.
The protein was dissolved in 200 μl of 0.9% NaCl (Braun, Malaysia) and administered through the intra-peritoneal (i.p.) route for the in vivo toxicity study in mice. Intra-tail vein (i.t.v.) administration was done in the ECG monitoring study in rats. The various protein doses were dissolved in 200 μl of 0.9% NaCl solution and injected into the tail vein using a 27 G ½ needle (Becton Dickinson, Franklin Lakes, N.J.) held at an angle of about 10° to the tail. […]
After purification of the protein from snake venom, i.p. doses of 1 mg/kg, 10 mg/kg and 100 mg/kg were administered to healthy male mice (three animals per group) and the symptoms were observed and recorded. […]

For α-bungarotoxin [reference compound], the symptoms was “severe paralysis of the hind limbs”.
